From patent US20250136688A1 (Janssen / Centocor, published 2025)

Experiments:
[1] = target: T1, ectonucleotide pyrophosphatase/phosphodiesterase family member 3 (ENPP3) (human, UniProt O14638 1-875); experiment: cell-based or functional assay
T1 sequence (looked up): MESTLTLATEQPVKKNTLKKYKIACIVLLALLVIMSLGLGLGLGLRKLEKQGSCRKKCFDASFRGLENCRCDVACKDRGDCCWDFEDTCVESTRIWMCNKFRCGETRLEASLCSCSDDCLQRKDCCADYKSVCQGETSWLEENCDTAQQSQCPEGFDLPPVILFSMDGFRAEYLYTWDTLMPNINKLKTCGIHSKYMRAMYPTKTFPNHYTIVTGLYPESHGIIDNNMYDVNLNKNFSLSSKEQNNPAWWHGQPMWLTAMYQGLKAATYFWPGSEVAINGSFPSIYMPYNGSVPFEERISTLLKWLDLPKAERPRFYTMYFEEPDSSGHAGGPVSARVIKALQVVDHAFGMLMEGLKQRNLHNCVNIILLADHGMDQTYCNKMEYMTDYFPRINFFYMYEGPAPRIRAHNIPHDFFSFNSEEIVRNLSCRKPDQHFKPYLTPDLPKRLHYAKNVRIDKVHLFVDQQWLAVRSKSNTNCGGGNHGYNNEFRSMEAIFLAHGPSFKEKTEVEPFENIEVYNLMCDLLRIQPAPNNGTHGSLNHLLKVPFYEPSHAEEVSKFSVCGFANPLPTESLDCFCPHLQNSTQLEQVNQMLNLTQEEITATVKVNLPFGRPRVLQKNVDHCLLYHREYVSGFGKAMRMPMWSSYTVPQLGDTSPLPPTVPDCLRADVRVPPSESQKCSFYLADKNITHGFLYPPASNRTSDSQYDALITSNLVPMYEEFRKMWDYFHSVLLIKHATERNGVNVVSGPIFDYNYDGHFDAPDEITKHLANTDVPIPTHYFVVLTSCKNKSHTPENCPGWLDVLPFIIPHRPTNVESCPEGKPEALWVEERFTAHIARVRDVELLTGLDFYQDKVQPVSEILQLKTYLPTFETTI

[2] = target: T1, ectonucleotide …; experiment: cell-based or functional assay; remark: listed apart in the source
[3] = target: T1, ectonucleotide …; experiment: cell-based or functional assay; remark: listed apart in the source
[4] = target: T1, ectonucleotide …; experiment: flow cytometry on A704 cells
[5] = target: T1, ectonucleotide …; experiment: flow cytometry on VMRCRCW cells
Human CD3 epsilon [6] = target: T2, Human CD3 epsilon (human, UniProt P07766 23-207); experiment: flow cytometry on T cells, average of 6 healthy human donors
T2 construct: Stood on human T cells (pan-T cells, isolated donor T cells) as part of the TCR/CD3 complex; the other chains of the complex are not written here; also called CD3ε; CD3R

Human CD3 epsilon [7] = target: T2, Human CD3 epsilon; experiment: flow cytometry on T cells of healthy human donor 110040278
Human CD3 epsilon [8] = target: T2, Human CD3 epsilon; experiment: flow cytometry on T cells of healthy human donor 110044049
Human CD3 epsilon [9] = target: T2, Human CD3 epsilon; experiment: flow cytometry on T cells of healthy human donor 110048457

T2 sequence (P07766 23-207 limits assumed): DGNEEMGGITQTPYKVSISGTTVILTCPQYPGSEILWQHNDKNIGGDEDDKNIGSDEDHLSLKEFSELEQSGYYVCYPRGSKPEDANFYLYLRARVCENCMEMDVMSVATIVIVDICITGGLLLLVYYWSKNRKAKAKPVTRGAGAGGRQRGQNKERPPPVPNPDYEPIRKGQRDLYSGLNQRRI

B1: NPP3B815 (NPP3B56×CD3B2030-N106A-spFv) (bispecific antibody, human IgG1, kappa, L234A L235A)
chain: EIVLTQSPATLSASPGERVTLSCSASSSVSYMNWYQQKPGCAPRRWIYDSSKLASGVPARFSGSGSGRDYTLTISSLEPEDFAVYYCQQWSRNPPTFGGGTKVEIKGGGSGGSGGCPPCGGSGGQVQLVQSGAEVKKPGSSVKVSCKASGYTFTRSTMHWVKQAPGQGLEWIGYINPSSAYTNYNQKFQGRVTLTADKSTSTAYMELSSLRSEDTAVYYCASPQVHYDYAGFPYWGCGTLVTVSSEPKSSDKTHTCPPCPAPEAAGGPSVFLFPPKPKDTLMISRTPEVTCVVVSVSHEDPEVKFNWYVDGVEVHNAKTKPREEQYNSTYRVVSVLTVLHQDWLNGKEYKCKVSNKALPAPIEKTISKAKGQPREPQVYTLPPSREEMTKNQVSLWCLVKGFYPSDIAVEWESNGQPENNYKTTPPVLDSDGSFFLYSKLTVDKSRWQQGNVFSCSVMHEALHNHYTQKSLSLSPGK
heavy: EVQLVESGGGRVKPGGSLRLSCAASGFTFSDYSMNWVRQAPGKGLEWVSSISSISSYVKYADSVKGRFTMSRDNAKNSLFLQMNSLRDEDMAVYYCARGHYFDYWGQGTLVTVSSASTKGPSVFPLAPSSKSTSGGTAALGCLVKDYFPEPVTVSWNSGALTSGVHTFPAVLQSSGLYSLSSVVTVPSSSLGTQTYICNVNHKPSNTKVDKKVEPKSCDKTHTCPPCPAPEAAGGPSVFLFPPKPKDTLMISRTPEVTCVVVSVSHEDPEVKFNWYVDGVEVHNAKTKPREEQYNSTYRVVSVLTVLHQDWLNGKEYKCKVSNKALPAPIEKTISKAKGQPREPQVYTLPPSREEMTKNQVSLSCAVKGFYPSDIAVEWESNGQPENNYKTTPPVLDSDGSFFLVSKLTVDKSRWQQGNVFSCSVMHEALHNRFTQKSLSLSPGK
light: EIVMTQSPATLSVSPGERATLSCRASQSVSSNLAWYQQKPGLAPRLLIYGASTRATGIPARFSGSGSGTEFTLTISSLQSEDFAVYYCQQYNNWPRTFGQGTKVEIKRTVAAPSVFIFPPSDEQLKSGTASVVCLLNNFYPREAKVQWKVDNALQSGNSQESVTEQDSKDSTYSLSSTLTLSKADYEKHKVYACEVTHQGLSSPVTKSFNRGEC
notes: Heavy Chain 1 = anti-CD3 spFv-Fc (knob); Heavy Chain 2 and Light Chain = anti-ENPP3 Fab arm NPP3B56 (hole); IgG1 with L234A, L235A, D265S; also called ENPP3×CD3
- T-cell activation (Flow Cytometry) EC50, A704 [1]: 0.011 nM
- T-cell activation (Flow Cytometry) EC50, HepG2 [1]: 0.041 nM
- T-cell activation (Flow Cytometry) EC50, VMRCRCW [1]: 0.018 nM
- Tumor cell killing (Incucyte) EC50, A704 [1]: 0.03 nM
- Tumor cell killing (Incucyte) EC50, HepG2 [1]: 0.53 nM
- Tumor cell killing (Incucyte) EC50, TUHR4TKB [1]: 0.05 nM
- Tumor cell killing (Incucyte) EC50, TUHR10TKB [1]: 0.02 nM
- Tumor cell killing (Incucyte) EC50, VMRCRCW [1]: 0.13 nM
- T-cell activation EC50, A704, donor 110040278, E:T 3:1 [2]: 0.008 nM
- T-cell activation EC50, A704, donor 110042496, E:T 3:1 [2]: 0.017 nM
- T-cell activation EC50, A704, donor 110042593, E:T 3:1 [2]: 0.013 nM
- T-cell activation EC50, A704, donor 110044049, E:T 3:1 [2]: 0.008 nM
- T-cell activation EC50, A704, donor 110048457, E:T 3:1 [2]: 0.01 nM
- T-cell activation EC50, A704, donor 888668965, E:T 3:1 [2]: 0.008 nM
- T-cell activation EC50, VMRCRCW, donor 110040278, E:T 3:1 [2]: 0.007 nM
- T-cell activation EC50, VMRCRCW, donor 110042496, E:T 3:1 [2]: 0.015 nM
- T-cell activation EC50, VMRCRCW, donor 110042593, E:T 3:1 [2]: 0.017 nM
- T-cell activation EC50, VMRCRCW, donor 110044049, E:T 3:1 [2]: 0.009 nM
- T-cell activation EC50, VMRCRCW, donor 110048457, E:T 3:1 [2]: 0.009 nM
- T-cell activation EC50, VMRCRCW, donor 888668965, E:T 3:1 [2]: 0.016 nM
- killing EC50 with PBMCs, A704, donor 110040278, E:T 3:1 [3]: 0.052 nM
- killing EC50 with PBMCs, A704, donor 110040278, E:T 5:1 [3]: 0.028 nM
- killing EC50 with PBMCs, A704, donor 110042496, E:T 3:1 [3]: 0.097 nM
- killing EC50 with PBMCs, A704, donor 110042496, E:T 5:1 [3]: 0.061 nM
- killing EC50 with PBMCs, A704, donor 110042593, E:T 1:1 [3]: 0.124 nM
- killing EC50 with PBMCs, A704, donor 110042593, E:T 3:1 [3]: 0.039 nM
- killing EC50 with PBMCs, A704, donor 110042593, E:T 5:1 [3]: 0.015 nM
- killing EC50 with PBMCs, A704, donor 110044049, E:T 1:1 [3]: 0.131 nM
- killing EC50 with PBMCs, A704, donor 110044049, E:T 3:1 [3]: 0.052 nM
- killing EC50 with PBMCs, A704, donor 110044049, E:T 5:1 [3]: 0.016 nM
- killing EC50 with PBMCs, A704, donor 110048457, E:T 3:1 [3]: 0.046 nM
- killing EC50 with PBMCs, A704, donor 110048457, E:T 5:1 [3]: 0.013 nM
- killing EC50 with PBMCs, A704, donor 888668965, E:T 1:1 [3]: 0.107 nM
- killing EC50 with PBMCs, A704, donor 888668965, E:T 3:1 [3]: 0.036 nM
- killing EC50 with PBMCs, A704, donor 888668965, E:T 5:1 [3]: 0.015 nM
- killing EC50 with PBMCs, VMRCRCW, donor 110040278, E:T 5:1 [3]: 0.033 nM
- killing EC50 with PBMCs, VMRCRCW, donor 110042496, E:T 5:1 [3]: 0.065 nM
- killing EC50 with PBMCs, VMRCRCW, donor 110042593, E:T 5:1 [3]: 0.033 nM
- killing EC50 with PBMCs, VMRCRCW, donor 110044049, E:T 5:1 [3]: 0.051 nM
- killing EC50 with PBMCs, VMRCRCW, donor 110048457, E:T 5:1 [3]: 0.063 nM
- killing EC50 with PBMCs, VMRCRCW, donor 888668965, E:T 5:1 [3]: 0.062 nM
- EC50 [4]: 1.01 nM
- EC50 [5]: 0.5 nM
- EC50 (Human CD3 epsilon [6]): 177 nM
- EC50 (Human CD3 epsilon [7]): 253 nM
- EC50 (Human CD3 epsilon [8]): 188 nM
- EC50 (Human CD3 epsilon [9]): 132 nM
